IntAct's records for PubMed 31515488

B1: Tektin-4 (Homo sapiens), Q8WW24 (parent)
chain: MAQTVPPCELPCKEYDVARNTGAYTSSGLATASFRTSKYLLEEWFQNCYARYHQAFADRDQSERQRHESQQLATETQALAQRTQQDSTRTVGERLQDTHSWKSELQREMEALAAETNLLLAQKQRLERALDATEVPFSITTDNLQCRERREHPNLVRDHVETELLKEAELIRNIQELLKRTIMQAVSQIRLNREHKETCEMDWSDKMEAYNIDETCGRHHSQSTEVQAHPYSTTFQESASTPETRAKFTQDNLCRAQRERLASANLRVLVDCILRDTSEDLRLQCDAVNLAFGRRCEELEDARYKLHHHLHKTLREITDQEHNVAALKQAIKDKEAPLHVAQTRLYLRSHRPNMELCRDAAQFRLLSEVEELNMSLTALREKLLEAEQSLRNLEDIHMSLEKDIAAMTNSLFIDRQKCMAHRTRYPTILQLAGYQ
B2: Protein FAM9B (Homo sapiens), Q8IZU0 (parent)
chain: MAAWGKKHAGKDPVRDECEERNRFTETREEDVTDEHGEREPFAETDEHTGANTKKPEDTAEDLTAKRKRMKMDKTCSKTKNKSKHALRKKQLKRQKRDYIHSLKLLNVLEEYITDEQKEEEEEEGEEEELIRIFQEQQKKWQQYRSVRRERLKEMKLLRDQFVKALEDFEDLCDRVFSDEDSELDN
partner: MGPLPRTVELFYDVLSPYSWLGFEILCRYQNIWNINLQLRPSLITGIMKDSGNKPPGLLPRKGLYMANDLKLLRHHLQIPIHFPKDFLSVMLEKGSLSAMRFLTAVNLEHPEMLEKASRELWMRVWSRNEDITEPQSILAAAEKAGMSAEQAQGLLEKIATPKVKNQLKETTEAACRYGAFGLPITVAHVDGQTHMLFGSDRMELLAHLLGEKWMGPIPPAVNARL
B3: Tetratricopeptide repeat protein 14 (Homo sapiens), Q96N46 (parent)
chain: MDRDLLRQSLNCHGSSLLSLLRSEQQDNPHFRSLLGSAAEPARGPPPQHPLQGRKEKRVDNIEIQKFISKKADLLFALSWKSDAPATSEINEDSEDHYAIMPPLEQFMEIPSMDRRELFFRDIERGDIVIGRISSIREFGFFMVLICLGSGIMRDIAHLEITALCPLRDVPSHSNHGDPLSYYQTGDIIRAGIKDIDRYHEKLAVSLYSSSLPPHLSGIKLGVISSEELPLYYRRSVELNSNSLESYENVMQSSLGFVNPGVVEFLLEKLGIDESNPPSLMRGLQSKNFSEDDFASALRKKQSASWALKCVKIGVDYFKVGRHVDAMNEYNKALEIDKQNVEALVARGALYATKGSLNKAIEDFELALENCPTHRNARKYLCQTLVERGGQLEEEEKFLNAESYYKKALALDETFKDAEDALQKLHKYMQKSLELREKQAEKEEKQKTKKIETSAEKLRKLLKEEKRLKKKRRKSTSSSSVSSADESVSSSSSSSSSGHKRHKKHKRNRSESSRSSRRHSSRASSNQIDQNRKDECYPVPANTSASFLNHKQEVEKLLGKQDRLQYEKTQIKEKDRCPLSSSSLEIPDDFGGRSEDPRDFYNSYKTQAGSSKTEKPYKSERHFSSRRNSSDSFCRNSEDKIYGYRRFEKDIEGRKEHYRRWEPGSVRHSTSPASSEYSWKSVEKYKKYAHSGSRDFSRHEQRYRLNTNQGEYEREDNYGEDIKTEVPEEDALSSKEHSESSVKKNLPQNLLNIFNQIAEFEKEKGNKSKN
B4: Beta-taxilin (Homo sapiens), Q8N3L3 (parent)
chain: MEANHSEQLSAERQSTPPGDSSSLPSHNGLEKEDGQDSPTPVQPPEKEASVHPDISEELNRQLEDIINTYGSAASTAGKEGSARASEQPENAESPDNEDGDCEETTEEAGREPVASGEPPTVKEPVSNKEQKLEKKILKGLGKEANLLMQNLNKLQTPEEKFDFLFKKYAELLDEHRTEQKKLKLLQKKQVQIQKEKDQLQGEHSRAILARSKLESLCRELQRHNKTLKEEALQRAREEEEKRKEITSHFQSTLTDIQGQIEQQSERNMKLCQENTELAEKLKSIIDQYELREEHLDKIFKHRELQQKLVDAKLEQAQEMMKEAEERHKREKEYLLNQAAEWKLQAKVLKEQETVLQAQLTLYSGRFEEFQSTLTKSNEVFATFKQEMDKTTKKMKKLEKDTATWKARFENCNKALLDMIEEKALRAKEYECFVMKIGRLENLCRALQEERNELHKKIRDAEISEKDDQSQHNSDEEPESNVSVDQEIDAEEVNSVQTAVKNLATAFMIIHHPESTPHQSKETQPEIGSSQESADAALKEPEQPPLIPSRDSESPLPPLTPQAEAEGGSDAEPPSKASNSPAGLGAETQCEGLPVGAQADQASWKPEAEASGQAPQAPTEASLQKMEADVPAPACAAEEHVAAMVPACEPSRQPPRAAAEELPVGASAGPQPRNVADTNLEGVD
partner: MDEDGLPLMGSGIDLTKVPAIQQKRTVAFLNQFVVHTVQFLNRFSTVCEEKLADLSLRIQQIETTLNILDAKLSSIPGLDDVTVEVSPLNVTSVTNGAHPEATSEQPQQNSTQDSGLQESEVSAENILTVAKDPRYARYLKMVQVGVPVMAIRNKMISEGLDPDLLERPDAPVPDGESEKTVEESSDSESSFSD
B5: UBX domain-containing protein 6 (Homo sapiens), Q9BZV1 (parent)
chain: MKKFFQEFKADIKFKSAGPGQKLKESVGEKAHKEKPNQPAPRPPRQGPTNEAQMAAAAALARLEQKQSRAWGPTSQDTIRNQVRKELQAEATVSGSPEAPGTNVVSEPREEGSAHLAVPGVYFTCPLTGATLRKDQRDACIKEAILLHFSTDPVAASIMKIYTFNKDQDRVKLGVDTIAKYLDNIHLHPEEEKYRKIKLQNKVFQERINCLEGTHEFFEAIGFQKVLLPAQDQEDPEEFYVLSETTLAQPQSLERHKEQLLAAEPVRAKLDRQRRVFQPSPLASQFELPGDFFNLTAEEIKREQRLRSEAVERLSVLRTKAMREKEEQRGLRKYNYTLLRVRLPDGCLLQGTFYARERLGAVYGFVREALQSDWLPFELLASGGQKLSEDENLALNECGLVPSALLTFSWDMAVLEDIKAAGAEPDSILKPELLSAIEKLL
partner: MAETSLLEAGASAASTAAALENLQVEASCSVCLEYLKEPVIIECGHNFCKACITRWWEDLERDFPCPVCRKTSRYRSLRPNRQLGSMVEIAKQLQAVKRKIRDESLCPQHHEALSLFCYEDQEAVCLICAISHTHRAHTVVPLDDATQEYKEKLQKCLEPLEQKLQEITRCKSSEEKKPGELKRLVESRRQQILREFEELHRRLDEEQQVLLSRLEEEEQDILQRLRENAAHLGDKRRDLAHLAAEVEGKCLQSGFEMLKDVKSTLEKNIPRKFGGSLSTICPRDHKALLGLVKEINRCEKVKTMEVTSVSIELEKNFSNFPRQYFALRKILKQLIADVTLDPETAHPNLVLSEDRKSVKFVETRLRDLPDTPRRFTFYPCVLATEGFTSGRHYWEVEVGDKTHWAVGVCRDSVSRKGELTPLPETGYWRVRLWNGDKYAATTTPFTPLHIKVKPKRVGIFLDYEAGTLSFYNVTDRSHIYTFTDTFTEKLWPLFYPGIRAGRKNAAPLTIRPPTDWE
B6: Protein FAM9B (Homo sapiens), Q8IZU0 (parent)
chain: B2 chain
partner: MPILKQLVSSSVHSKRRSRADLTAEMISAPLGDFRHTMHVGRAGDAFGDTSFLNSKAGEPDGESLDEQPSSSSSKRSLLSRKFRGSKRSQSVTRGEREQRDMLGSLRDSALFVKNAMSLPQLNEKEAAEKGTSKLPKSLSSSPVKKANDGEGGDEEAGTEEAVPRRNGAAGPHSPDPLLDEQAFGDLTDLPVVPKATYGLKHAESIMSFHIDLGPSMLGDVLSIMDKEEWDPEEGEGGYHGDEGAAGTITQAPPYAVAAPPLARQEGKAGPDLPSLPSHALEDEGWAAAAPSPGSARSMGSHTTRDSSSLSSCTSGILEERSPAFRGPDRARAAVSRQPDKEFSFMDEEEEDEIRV
B7: Protein boule-like (Homo sapiens), Q8N9W6 (parent)
chain: MQTDSLSPSPNPVSPVPLNNPTSAPRYGTVIPNRIFVGGIDFKTNESDLRKFFSQYGSVKEVKIVNDRAGVSKGYGFVTFETQEDAQKILQEAEKLNYKDKKLNIGPAIRKQQVGIPRSSIMPAAGTMYLTTSTGYPYTYHNGVAYFHTPEVTSVPPPWPSRSVCSSPVMVAQPIYQQPAYHYQATTQYLPGQWQWSVPQPSASSAPFLYLQPSEVIYQPVEIAQDGGCVPPPLSLMETSVPEPYSDHGVQATYHQVYAPSAITMPAPVMQPEPIKTVWSIHY
partner: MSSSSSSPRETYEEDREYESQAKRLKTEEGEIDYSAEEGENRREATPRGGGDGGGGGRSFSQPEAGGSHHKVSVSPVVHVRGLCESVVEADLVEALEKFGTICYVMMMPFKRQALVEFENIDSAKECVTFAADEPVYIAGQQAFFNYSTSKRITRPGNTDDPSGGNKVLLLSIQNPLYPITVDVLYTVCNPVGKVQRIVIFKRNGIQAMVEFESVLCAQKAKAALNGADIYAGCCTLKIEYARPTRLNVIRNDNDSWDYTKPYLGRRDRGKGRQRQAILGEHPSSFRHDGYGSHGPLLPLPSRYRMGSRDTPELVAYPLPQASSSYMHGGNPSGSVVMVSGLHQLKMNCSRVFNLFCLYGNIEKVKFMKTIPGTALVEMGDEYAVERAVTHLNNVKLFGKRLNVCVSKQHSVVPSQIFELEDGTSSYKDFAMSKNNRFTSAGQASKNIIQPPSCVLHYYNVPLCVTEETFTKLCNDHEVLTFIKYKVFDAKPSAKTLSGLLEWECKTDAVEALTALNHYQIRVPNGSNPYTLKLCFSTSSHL
B8: Mothers against decapentaplegic homolog 4 (Homo sapiens), Q13485 (parent)
chain: MDNMSITNTPTSNDACLSIVHSLMCHRQGGESETFAKRAIESLVKKLKEKKDELDSLITAITTNGAHPSKCVTIQRTLDGRLQVAGRKGFPHVIYARLWRWPDLHKNELKHVKYCQYAFDLKCDSVCVNPYHYERVVSPGIDLSGLTLQSNAPSSMMVKDEYVHDFEGQPSLSTEGHSIQTIQHPPSNRASTETYSTPALLAPSESNATSTANFPNIPVASTSQPASILGGSHSEGLLQIASGPQPGQQQNGFTGQPATYHHNSTTTWTGSRTAPYTPNLPHHQNGHLQHHPPMPPHPGHYWPVHNELAFQPPISNHPAPEYWCSIAYFEMDVQVGETFKVPSSCPIVTVDGYVDPSGGDRFCLGQLSNVHRTEAIERARLHIGKGVQLECKGEGDVWVRCLSDHAVFVQSYYLDREAGRAPGDAVHKIYPSAYIKVFDLRQCHRQMQQQAATAQAAAAAQAAAVAGNIPGPGSVGGIAPAISLSAAAGIGVDDLRRLCILRMSFVKGWGPDYPRQSIKETPCWIEIHLHRALQLLDEVLHTMPIADPQPLD
partner: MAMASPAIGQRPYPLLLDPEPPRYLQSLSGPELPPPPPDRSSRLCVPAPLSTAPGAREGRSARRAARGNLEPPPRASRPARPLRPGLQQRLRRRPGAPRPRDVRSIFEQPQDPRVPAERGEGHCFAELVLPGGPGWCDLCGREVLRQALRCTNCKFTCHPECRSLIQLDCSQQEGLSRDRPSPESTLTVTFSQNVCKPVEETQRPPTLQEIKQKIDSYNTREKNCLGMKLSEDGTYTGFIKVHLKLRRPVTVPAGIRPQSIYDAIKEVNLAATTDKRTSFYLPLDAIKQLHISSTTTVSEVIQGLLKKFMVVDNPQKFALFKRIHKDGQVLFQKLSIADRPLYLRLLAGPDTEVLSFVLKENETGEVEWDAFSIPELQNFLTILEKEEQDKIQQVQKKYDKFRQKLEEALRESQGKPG
B9: Dynein light chain 2, cytoplasmic (Homo sapiens), Q96FJ2 (parent)
chain: MSDRKAVIKNADMSEDMQQDAVDCATQAMEKYNIEKDIAAYIKKEFDKKYNPTWHCIVGRNFGSYVTHETKHFIYFYLGQVAILLFKSG
partner: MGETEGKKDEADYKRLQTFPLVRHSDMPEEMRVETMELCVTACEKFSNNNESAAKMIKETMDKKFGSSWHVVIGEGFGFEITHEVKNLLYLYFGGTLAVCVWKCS

Variants of: B1
Settings: with atg5_human ATG5, Q9H1Y0
Sequence of atg5_human ATG5, Q9H1Y0 (Q9H1Y0 whole entry): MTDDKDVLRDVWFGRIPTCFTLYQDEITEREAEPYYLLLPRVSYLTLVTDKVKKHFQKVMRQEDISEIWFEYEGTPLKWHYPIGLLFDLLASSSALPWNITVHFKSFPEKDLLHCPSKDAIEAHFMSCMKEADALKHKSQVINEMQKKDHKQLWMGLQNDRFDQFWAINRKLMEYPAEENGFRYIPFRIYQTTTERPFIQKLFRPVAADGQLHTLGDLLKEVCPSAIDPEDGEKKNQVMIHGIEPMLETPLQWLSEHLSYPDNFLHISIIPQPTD

Variant	effect of a mutation on the interaction
D403N	with no effect
A80V	with no effect
S100G	with no effect

Variants of: B1
Settings: with trip6_human TRIP6, Q15654
Sequence of trip6_human TRIP6, Q15654 (Q15654 whole entry): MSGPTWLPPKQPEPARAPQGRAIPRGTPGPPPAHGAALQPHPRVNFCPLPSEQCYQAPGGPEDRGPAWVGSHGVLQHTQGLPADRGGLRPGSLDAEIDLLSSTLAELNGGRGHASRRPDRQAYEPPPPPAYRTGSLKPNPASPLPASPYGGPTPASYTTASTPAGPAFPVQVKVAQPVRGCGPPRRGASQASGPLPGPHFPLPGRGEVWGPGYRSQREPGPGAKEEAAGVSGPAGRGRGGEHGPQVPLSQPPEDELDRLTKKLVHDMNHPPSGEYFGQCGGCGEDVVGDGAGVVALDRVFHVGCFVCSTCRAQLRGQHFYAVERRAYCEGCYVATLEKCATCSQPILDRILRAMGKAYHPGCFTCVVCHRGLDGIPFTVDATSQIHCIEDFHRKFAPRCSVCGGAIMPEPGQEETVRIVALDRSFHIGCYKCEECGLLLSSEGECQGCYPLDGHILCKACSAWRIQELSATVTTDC

Variant	effect of a mutation on the interaction
S100G	with no effect

Variants of: B1
Settings: with maga4_human MAGEA4, P43358
Sequence of maga4_human MAGEA4, P43358 (P43358 whole entry): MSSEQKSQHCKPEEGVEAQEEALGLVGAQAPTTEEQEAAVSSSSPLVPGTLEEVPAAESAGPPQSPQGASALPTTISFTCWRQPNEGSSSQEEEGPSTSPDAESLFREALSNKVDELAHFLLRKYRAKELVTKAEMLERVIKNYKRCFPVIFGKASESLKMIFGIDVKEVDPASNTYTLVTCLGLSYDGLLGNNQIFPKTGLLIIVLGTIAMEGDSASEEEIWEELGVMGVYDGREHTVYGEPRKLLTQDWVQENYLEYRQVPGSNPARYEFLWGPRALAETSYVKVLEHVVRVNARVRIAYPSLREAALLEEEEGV

Variant	effect of a mutation on the interaction
S100G	with no effect

Variants of: B2
Settings: with gstk1_human GSTK1, Q9Y2Q3

Variant	effect of a mutation on the interaction
R23H	with no effect

Variants of: B3
Settings: with cep70_human CEP70, Q8NHQ1
Sequence of cep70_human CEP70, Q8NHQ1 (Q8NHQ1 whole entry): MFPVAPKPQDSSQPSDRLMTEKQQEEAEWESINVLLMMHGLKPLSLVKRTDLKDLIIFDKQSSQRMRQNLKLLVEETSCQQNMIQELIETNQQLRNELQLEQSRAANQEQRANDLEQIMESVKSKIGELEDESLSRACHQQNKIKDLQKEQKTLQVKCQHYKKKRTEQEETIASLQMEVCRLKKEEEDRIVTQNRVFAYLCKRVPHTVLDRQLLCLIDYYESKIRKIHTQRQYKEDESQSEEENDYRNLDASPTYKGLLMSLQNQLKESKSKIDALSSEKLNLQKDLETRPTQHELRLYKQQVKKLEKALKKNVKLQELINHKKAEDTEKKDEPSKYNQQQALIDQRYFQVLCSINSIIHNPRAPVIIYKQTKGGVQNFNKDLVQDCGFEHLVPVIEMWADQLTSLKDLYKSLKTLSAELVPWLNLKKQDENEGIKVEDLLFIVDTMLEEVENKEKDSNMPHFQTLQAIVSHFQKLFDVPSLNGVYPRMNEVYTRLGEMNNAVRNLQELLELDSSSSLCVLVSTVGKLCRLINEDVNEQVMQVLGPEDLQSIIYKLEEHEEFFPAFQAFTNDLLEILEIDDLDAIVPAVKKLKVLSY

Variant	effect of a mutation on the interaction
E486Q	with no effect
S697G	with no effect

Variants of: B4
Settings: with wasc3_human WASHC3, Q9Y3C0

Variant	effect of a mutation on the interaction
I527T	with no effect

Variants of: B5
Settings: with tri39_human TRIM39, Q9HCM9

Variant	effect of a mutation on the interaction
A361V	with no effect

Variants of: B6
Settings: with borg4_human CDC42EP4, Q9H3Q1

Variant	effect of a mutation on the interaction
R23H	with no effect

Variants of: B7
Settings: with hnrll_human HNRNPLL

Variant	effect of a mutation on the interaction
M270I	with no effect
V78I	with no effect
S9Y	with no effect

Variants of: B8
Settings: with rasf5_human RASSF5, Q8WWW0

Variant	effect of a mutation on the interaction
R361C	with no effect
N13S	with no effect
Y353S	with no effect
C324R	disrupting interaction strength
L533R	with no effect
G352R	with no effect
V350D	disrupting interaction strength
E330K	with no effect

Variants of: B9
Settings: with dnal4_human DNAL4, O96015

Variant	effect of a mutation on the interaction
N33S	with no effect
